According to patent US20120058102A1:

Target: ZFHD-FKBP fusion with 3 copies of the drug binding domain (3xFKBP)
Test: cell-based or functional assay

luciferase expression in mice (Xenogen imaging) after rapamycin 2 mg/kg IP, against pre-induction; Group 2, transcription factor unit under the CMV promoter: > 2 logs | luciferase expression in mice (Xenogen imaging) after rapamycin 2 mg/kg IP, against pre-induction; Group 4, transcription factor unit under the TBG promoter: > 100 fold
Substance: FRB-TA fusion (FRB fragment of FRAP/mTOR fused to a portion of human NF-KB p65 as transcription activator)
